One substance from patent US20210393741A1 can be followed below.

For the test, the target named is CD91 on macrophages (mouse (C57BL/6 mice)) (UniProt Q91ZX7). The experiment in a line: cell-based or functional assay.
Sequence of UniProt Q91ZX7 (Q91ZX7 20-4545): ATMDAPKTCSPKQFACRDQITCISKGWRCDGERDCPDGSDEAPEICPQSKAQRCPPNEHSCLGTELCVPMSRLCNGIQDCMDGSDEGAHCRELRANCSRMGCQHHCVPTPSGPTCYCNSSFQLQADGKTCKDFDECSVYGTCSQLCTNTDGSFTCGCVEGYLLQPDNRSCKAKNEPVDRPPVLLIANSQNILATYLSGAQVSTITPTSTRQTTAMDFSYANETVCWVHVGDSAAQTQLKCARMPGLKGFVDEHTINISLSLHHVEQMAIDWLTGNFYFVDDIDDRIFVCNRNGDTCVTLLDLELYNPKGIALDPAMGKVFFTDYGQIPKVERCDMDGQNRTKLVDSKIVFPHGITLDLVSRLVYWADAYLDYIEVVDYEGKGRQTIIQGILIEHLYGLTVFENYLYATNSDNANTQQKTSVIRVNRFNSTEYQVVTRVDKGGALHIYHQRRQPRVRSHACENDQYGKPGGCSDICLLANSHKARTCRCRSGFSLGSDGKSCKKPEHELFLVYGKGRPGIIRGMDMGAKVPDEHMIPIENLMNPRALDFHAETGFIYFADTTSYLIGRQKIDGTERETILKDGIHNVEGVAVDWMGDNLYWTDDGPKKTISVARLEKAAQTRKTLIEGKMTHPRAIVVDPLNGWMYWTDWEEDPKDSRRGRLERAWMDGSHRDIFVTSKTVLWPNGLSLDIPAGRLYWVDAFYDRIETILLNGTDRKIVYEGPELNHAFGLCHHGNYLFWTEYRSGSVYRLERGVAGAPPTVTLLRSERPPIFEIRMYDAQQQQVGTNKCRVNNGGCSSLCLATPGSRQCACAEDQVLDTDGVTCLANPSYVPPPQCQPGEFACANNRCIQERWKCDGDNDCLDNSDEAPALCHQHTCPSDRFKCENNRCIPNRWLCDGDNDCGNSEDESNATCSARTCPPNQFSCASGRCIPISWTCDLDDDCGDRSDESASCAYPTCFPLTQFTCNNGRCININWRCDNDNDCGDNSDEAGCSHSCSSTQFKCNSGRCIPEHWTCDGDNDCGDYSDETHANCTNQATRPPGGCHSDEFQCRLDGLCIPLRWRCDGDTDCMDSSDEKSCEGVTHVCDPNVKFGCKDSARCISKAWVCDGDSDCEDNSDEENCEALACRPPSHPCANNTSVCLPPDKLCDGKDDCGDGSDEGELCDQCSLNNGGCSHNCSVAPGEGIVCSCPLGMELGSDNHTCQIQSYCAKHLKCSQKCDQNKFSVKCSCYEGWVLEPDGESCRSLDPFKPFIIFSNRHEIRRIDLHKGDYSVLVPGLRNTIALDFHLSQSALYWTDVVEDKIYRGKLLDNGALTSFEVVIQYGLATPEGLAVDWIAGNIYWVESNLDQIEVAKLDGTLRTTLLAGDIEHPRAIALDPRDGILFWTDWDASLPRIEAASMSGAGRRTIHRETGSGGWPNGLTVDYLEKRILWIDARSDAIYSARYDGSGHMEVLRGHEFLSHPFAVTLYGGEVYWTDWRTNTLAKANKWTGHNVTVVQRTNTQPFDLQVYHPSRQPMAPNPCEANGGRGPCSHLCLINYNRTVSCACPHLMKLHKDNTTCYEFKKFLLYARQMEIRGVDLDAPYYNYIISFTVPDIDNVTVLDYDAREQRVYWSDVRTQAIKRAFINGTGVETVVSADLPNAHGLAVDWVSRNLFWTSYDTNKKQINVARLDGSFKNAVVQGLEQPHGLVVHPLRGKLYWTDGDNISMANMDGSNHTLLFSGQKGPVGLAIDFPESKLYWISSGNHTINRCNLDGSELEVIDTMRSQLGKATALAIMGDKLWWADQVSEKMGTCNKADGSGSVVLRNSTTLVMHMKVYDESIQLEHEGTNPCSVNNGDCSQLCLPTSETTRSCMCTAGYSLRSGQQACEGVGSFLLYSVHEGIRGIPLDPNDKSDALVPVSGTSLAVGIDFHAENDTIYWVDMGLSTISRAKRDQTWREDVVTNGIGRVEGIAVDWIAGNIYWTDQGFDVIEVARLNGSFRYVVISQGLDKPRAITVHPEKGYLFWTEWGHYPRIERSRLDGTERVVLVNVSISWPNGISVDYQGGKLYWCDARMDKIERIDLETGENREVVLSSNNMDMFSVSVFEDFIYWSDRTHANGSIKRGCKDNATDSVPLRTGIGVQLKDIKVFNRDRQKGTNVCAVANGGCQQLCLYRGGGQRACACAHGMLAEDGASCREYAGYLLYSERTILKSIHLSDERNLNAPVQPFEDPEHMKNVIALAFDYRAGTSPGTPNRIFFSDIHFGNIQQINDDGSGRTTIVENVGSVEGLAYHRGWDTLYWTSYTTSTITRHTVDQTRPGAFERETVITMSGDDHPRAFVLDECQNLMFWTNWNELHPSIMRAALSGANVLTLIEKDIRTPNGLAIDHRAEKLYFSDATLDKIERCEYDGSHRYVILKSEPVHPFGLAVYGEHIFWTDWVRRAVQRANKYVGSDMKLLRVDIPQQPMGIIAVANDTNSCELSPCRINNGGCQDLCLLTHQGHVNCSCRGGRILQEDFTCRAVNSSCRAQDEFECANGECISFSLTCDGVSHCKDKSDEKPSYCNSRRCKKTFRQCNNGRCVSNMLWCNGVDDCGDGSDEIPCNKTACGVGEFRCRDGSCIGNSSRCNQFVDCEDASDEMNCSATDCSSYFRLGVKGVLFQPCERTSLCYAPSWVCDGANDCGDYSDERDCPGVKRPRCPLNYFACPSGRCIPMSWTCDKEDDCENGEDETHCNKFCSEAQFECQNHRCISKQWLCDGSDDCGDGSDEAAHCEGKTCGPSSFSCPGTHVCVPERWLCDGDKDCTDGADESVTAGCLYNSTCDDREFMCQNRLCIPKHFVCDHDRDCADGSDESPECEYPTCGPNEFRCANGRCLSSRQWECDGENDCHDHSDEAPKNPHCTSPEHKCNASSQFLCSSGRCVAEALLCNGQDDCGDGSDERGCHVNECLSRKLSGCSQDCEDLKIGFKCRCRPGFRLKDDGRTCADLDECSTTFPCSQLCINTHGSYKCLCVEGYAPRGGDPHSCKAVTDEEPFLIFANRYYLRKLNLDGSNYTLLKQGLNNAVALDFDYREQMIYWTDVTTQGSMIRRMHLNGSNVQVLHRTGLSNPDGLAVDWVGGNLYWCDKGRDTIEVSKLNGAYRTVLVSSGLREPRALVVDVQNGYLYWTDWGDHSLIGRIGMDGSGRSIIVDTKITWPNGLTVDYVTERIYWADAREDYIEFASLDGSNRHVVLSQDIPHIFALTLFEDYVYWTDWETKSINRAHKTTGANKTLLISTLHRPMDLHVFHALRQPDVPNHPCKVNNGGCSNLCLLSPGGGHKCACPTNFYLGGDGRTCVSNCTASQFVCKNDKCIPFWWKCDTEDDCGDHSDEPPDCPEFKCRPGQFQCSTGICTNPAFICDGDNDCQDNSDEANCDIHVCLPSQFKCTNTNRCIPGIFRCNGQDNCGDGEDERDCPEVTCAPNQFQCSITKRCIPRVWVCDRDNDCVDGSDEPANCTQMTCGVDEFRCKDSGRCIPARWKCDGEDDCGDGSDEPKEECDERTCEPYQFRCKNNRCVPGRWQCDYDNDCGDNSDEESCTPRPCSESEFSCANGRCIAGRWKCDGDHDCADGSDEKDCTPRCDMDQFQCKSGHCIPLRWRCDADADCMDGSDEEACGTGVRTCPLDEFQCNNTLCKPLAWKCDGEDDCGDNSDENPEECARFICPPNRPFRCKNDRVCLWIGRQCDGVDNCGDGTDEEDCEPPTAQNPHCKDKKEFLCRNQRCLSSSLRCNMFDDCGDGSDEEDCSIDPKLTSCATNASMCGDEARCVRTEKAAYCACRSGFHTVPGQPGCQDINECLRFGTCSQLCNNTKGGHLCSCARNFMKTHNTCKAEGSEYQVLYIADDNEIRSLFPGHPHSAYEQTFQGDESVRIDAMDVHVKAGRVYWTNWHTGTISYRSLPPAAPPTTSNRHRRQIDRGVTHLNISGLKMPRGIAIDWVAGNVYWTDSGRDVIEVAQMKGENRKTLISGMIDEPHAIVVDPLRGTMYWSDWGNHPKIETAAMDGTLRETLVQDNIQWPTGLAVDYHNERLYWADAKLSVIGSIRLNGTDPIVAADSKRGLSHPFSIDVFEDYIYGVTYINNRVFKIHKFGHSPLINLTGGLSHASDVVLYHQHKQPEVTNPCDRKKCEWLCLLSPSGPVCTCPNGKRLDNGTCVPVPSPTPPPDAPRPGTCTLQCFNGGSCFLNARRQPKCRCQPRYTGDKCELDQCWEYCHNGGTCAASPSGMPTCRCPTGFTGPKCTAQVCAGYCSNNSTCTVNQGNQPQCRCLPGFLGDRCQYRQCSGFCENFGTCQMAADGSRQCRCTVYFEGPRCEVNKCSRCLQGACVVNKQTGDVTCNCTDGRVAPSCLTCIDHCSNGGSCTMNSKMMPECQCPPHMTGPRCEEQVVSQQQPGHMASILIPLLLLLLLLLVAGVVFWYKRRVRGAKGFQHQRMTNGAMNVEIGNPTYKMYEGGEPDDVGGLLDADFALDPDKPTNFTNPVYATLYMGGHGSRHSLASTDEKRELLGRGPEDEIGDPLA

“calreticulin (CRT), recombinant (ligand)”: the IFN alpha MFI (Fold Change), RAW264.7 macrophage (M1) cells pulsed with calreticulin 10 ug/ml for 20 min, FACS stood at 7.5 fold change; the IFN beta MFI (Fold Change), RAW264.7 macrophage (M1) cells pulsed with calreticulin 10 ug/ml for 20 min, FACS was 7 fold change; the IL-12 MFI (Fold Change), RAW264.7 macrophage (M1) cells pulsed with calreticulin 10 ug/ml for 20 min, FACS amounted to 3.5 fold change; the IL-15 MFI (Fold Change), RAW264.7 macrophage (M1) cells pulsed with calreticulin 10 ug/ml for 20 min, FACS was found to be 3.5 fold change.
